According to a protein production outcome set (Wang et al. 2014):

Experiment: label from the status in PepcDB records

Row | Sequence | protein production
1 | MSVYKLTDLRDNSTNWKINVKILSIWNHPPNSHGEIMTMILHDDKNNRVDATIPQGNYHNPFRPFLKPGTWIHISDFRVIVPQSRVRYSSFCFHIKFIWETSVYPLPELVKRDFFDFIFPIDLKYPCLEDWDYVTDAMSEVTNISAIKKFPFVCRQGETDYESRYVSFELLDNMGEKMKCYAVGRCCELFVINFSKCISSASYNYQPIVAIVRFWRIAEIEGENVLKSEFGCSRIYLNPTNFPEIDIQSYIRGFEDYDELPENPRMEVIEEN | failed
2 | MSSSNQDISIENTDLLTEISVAYYQDGATQEEISRKFAISRAKVGRMLKQARDEGIVEITVKYHPVFSAKIEQRLIERFGVKRALVALDQPNEEAQRLQVSGLVSNYLTSTLKNGMVVTVGQGRNVSSVAHHIGVITPRDCKFVCGIGGIHPRGGMYNADHICRQLAKKYGGTSETLYAPAYAENREQKMAFMQNATVKQTLDLARKADVALVGIGDMSENSYMVDLGWFTPDEVVQSRLKQGVVGDFAGYDFFDIHGNVANTVMSDRVIGLGIEEFRPIAEVIAIAAENSKPLALLGALRTGAIDVIATSVSNALTVLNLDEQMHGNAASES | failed
3 | MFAAAVSFVALLLFTIGLYGVMTSRVGIKMLISIEIMINSAILSIIGIGSYFYSSSVQIDPYVFALFAIAIGVVESAVGLGLLVIVYRKFGKIDISLLKEIRW | failed
4 | MIRQKSIRRVKPPEDYQARLATPFAVLGLRTDEDWLTDIEYLPPDTPTLVPQTPLAREVCDQLQAYLADPGFVFDLSLHIGGTVHQRRVWQAIQDIPAGATRSYAAIAVELHSAPRAVGQACGANRLPIVIPCHRVIAKSGGLGGFMNASDGLPLTIKRWLLQHEGI | failed
5 | MYQVIIFALLFAGISSGFITFRIMGMRMAPHFGVLILALIATAANIMSGNVTLNYVAVALQVLTGISAYTQFLPVLRDSFQTAPLYACHLSTVTVAAVLAAASVPL | failed
6 | MALIETGPGSTVPMLQARLAARGLTPADVSEVFLTHIHLDHAGAAGHLARHGATIYAHHVGLPHLSDPARLLASARRIYGDDMDALWGEMHPVPDDQLVALNDGDTVPLGGEPLTALDTPGHASHHMSYVLGDVCFTGDVGGVRMPEERHVELPLAPPEIDLDAWRESLAALRAAADRHGLTHLAPTHFGLYDDLPAHFERLEAAIETADDWAARKLPGWDDGDEALQDAVTQWMRSRASDHGVDGDAWDRYERANPSWMAALGLRRYWTTQTA | failed
7 | MPQAKKRTSTKRKGNKKTNKKKQNETPLRYIFSIIVVILIILGAFQLGIIGRMIDSFFNYLFGMSRYLTYILVLIATIFITYSKQIPRTRRSIGAIVLQLALLFIAQLYFHFSHNITSQREPVLSFVYKAYEQTHFPNFGGGLIGFYLLKLFIPLISIVGVIIITILLLASSFILLLNLRHRDVTKSLFDNLKSSSNHASESIKQKREQNKIKKEEKAQLKEAKIERKKQKKSRQNNNVIKDVSDFPEISQSDDIPIYGHNEQEDKRPNTANQRQKRVLDNEQFQQSLPSTKNQSINNNQPSTTAENNQQQSQAEGSISEAGEEANIEYTVPPLSLLKQPTKQKTTSKAEVQRKGQVLESTLKNFGVNAKVTQIKIGPAVTQYEIQPAQGVKVSKIVNLHNDIALALAAKDVRIEAPIPGRSAVGIEVPNDKISLVTLKEVLEDKFPSKYKLEVGIGRDISGDPISIQLNEMPHLLVAGSTGSGKSVCINGIITSILLNTKPHEVKLMLIDPKMVELNVYNGIPHLLIPVVTNPHKASQALEKIVSEMERRYDLFQHSSTRNIEGYNQYIRKQNEELDEKQPELPYIVVIVDELADLMMVAGKEVENAIQRITQMARAAGIHLIVATQRPSVDVITGIIKNNIPSRIAFAVSSQTDSRTIIGAGGAEKLLGKGDMLYVGNGESTTTRIQGAFLSDQEVQDVVNYVVEQQKANYVKEMEPDAPVDKSEMKSEDALYDEAYLFVIEKQKASTSLLQRQFRIGYNRASRLMDDLERNQVIGPQKGSKPRQILVDLENDEV | failed
8 | MNLNIRIKNYWEGEAQGYSEAIEDELNGFERKAWSDLVLEYAPSKDRLDILDIGTGPGFFPIVLSQGGHNVTGIDLTENMIEFARLNLAREGASAKLVTMDCQNLKFPDNCFDLLVCRNLTWTLDDPAKAYKEWHRVLKPGGRVLIFDACWYLHLFDENMKIAYEKKEKEILMKYGHPMHQHKDQVEGDALSRKLFMSDKVRPQWDLDIMLKLGFSKVFADTSVGERILNEQQQDRNSMHPPFLVGGEK | failed
9 | MKNQLIDRLTRYTTIDTQSDPKSTTTPSTEKQWDLLHLLEKELQQLGLPTDLDENGYLFATLESNIDVDVPTVGFLAHVDTSPDFNASNVKPQIIENYDGKPYKLGNTKRVLDPKVFPELNSLVGHTLMVTDGTSLLGADDKAGIVEIMEAICYLQEHPEIKHGTIRIGFTPDEEIGRGPHKFDVDRFNADFAYTMDGSQYGELQYESFNAAEAVITCHGVNVHPGSAKNAMVNAIRLGEQFDSLLPDSEVPERTEGYEGFYHLMNFEGTVEKATLQYIIRDHDKKQFELRKKRILEIRDDINAHFENYPVKVDISDQYFNMAEKILPLPHIIDIPKRVFAKLDIPANTEPIRGGTDGSQLSFMGLPTPNIFTGCGNFHGPYEYASIDVMEKAVQVIIGIVEDIAENH | failed
10 | MSIATTPLHTALSLPQIQSFAASDMAAIDTLIHDRLTSDIVLINQIADHIICSGGKRLRPMLTMLAGHAIGPTGPHHHQLAAIIEFIHTATLLHDDVVDGSELRRSRSTANALWGNAPSVLVGDFLYSRSFQLMTELANLEVMQILAETTNRISEGEVLQLLHVHNPDTDETTYLSVIERKTAILFAAAAQLGALASHADTQTQTRMYEYGMQLGYAFQITDDVLDYTANNSQLGKNLGDDLAEGKATLPVIHAMTHSDAATCERLRMIISKGDSDAMPEVLNAIRTTGSLDYSRQRASAYAATAERALDGLPETEAVAALRGLARYAVQRTY | failed
11 | MQPEITSYRHPATGTVSYLVVDPATFLCAIVDPVLDFDPVTEEIDTRFVDAIIADIRAKDLGPTWILETGLHTGHLSAAGHLKYETGASVCIGAGVVESLKRLAPQFGETMVDLDGWDFDKLAQDGDTFPMGGLEITPIALTGRLPGAVAYRMADMVFTGDLVLAPAEGSGRCDIPGADAGKAWDDARKILALPPETRIMPGVSATAACESTVADAKASNIQLNDTIDQLDFIALRTAADAFLPDPELAAAALRVAIRAGRPPSPPESGPRFPAVDLSKL | failed
12 | MSNDSPQLPDFLLAGRYRLHRLIGAGGMGRVWEGVDELLDRPVAIKELTINEHLPPQEIEILRARMLREARSAAQLSHPSIITVFDVVEKDGFPWIVMELVHGKSLSEIIKQEGAISPERAANLGLQVAAALSVAHQRGIVHRDIKPGNVLVARGDRAVLTDFGIAYLEGSSRLTRTGSLLGSPSYLAPEQARGEPASPAADMWALGTTLYAALHGAPPFQRATPMATLTAVVVDEVPPPVKAGPLRPLLEQLLNKDPQKRPTVHEVVEELQRVVMSFPPQSSSASSTGTHTLQEEASPAPAEVSVAKPAADTSALPLSSPAEPGKRNSTLATVGLVALALCVVVAVITAVVLFVPAGGNSRADGEQPAAETSQSSEETGQAEEPEPTTSAEAAEQGVGEDDEDSEEEAEDDDYSGPPLVRHEDPTGFSLDVPEGWSVDRRGSSVFFRNPEGGYLQVDQTDSPNPDAKKDWEAQERGAAGRFSNYSLIDIRYSDHPSMERYVTASDWEFTFTINGQRMHAVNRGFHTEKKGYALFLVYPADGWEETGAPLLDRMSESFEPAA | failed
13 | MNQTRVLLIFSWLTVATLLWMDWSKNKNETLEISASHNLGVDSNLELEHAVPQIHAGAVPLQKDSQLIAAAPKVPVINVTTDVLQLKLDGFSILAADLLRFPQSKDRGAKPIKLLTDDPNYPYSATTGWVSQSNSPVPNLSTFLPEQPDVSYKLANDQNRLVVPFIWTAANGVSIRRTFTFERGRYAILIRDEIRNSGETPWNAYVFRKLSRVPIPNILNRAMTNPDSFSFNGAVWYSEKGGYERRAFKDYMNDGGLNREIGGGWIALLQHHFFTAWIPQKDQASLYLLAQNGSRDIAELRGPAFTVAPGQTTTTEARLWVGPKLVEQITKEHVKGLDRVVDYSRFQLMALIGQGLFWILSHLNSLLHNWGWAIVGLVVLLRIAMYPLSASQYKSAAKMRKFQPRLQQLKERYGEDRQKFQQAMMELYKKEKINPMGGCFPILIQMPIFFALYWVLVESVELRQAPWLGWIQDLTTRDPYFILPLLNIVIMWATQKLTPTPAGMDPIAGKMMQVMPLIFGVMMAFVPSGLALYWVINGGLNLLIQWWMIRQHADFSRKRSRENIK | failed
14 | MTTLRTLMAVSLVLNLAACGFKLRGQVSELPFERVYITAPAGLTIGSDLERVISTHTRAKVVNKAEKSEAIIQIVHAIREKRILSLSESGRVREFELVYRVAARLLDAHNAELASLQEIRLTRILPFLDAQELAKAAEEEMLYKDMQKDAVQQILRQVSAVTSAGLEHHHHHH | not failed
15 | MAEEKVKDEAMQIMGMFQILPRLVVFDLDYTLWPFYCECRSKREMPSMYPQAKGILSALKEKGIEMAIASRSPTSDIANTFLDKLNIKPMFVAKVSKMGVTSILVGDGVTLGAFRQGLTEFTQNHNSIEKNKQVWRDKYSGKPTSSETDKD | failed
16 | MKWRYSPKTSNYCFIVGGFFLFLPILMYGWGHFRRPPRSENQQELFRGIVYQRLIESKPRPLIIHIVTIDLNTPGIKPFITPDIENLSKNVGVGKQAIIDNETKARTTSEFVAEFQVKLAINGSYFYPFKEVTPWHYYPHSGDTTKVLGQTISNGKIYANKKSSWYVLCFDNNNQAQIPGGEECPKNTIQGLAGDDVLVFQGKPKINIYANSSADKPYSRVVAAIDKTGKKLWLVLVDGKQPLYSEGFTKRELTQFIAKLGVYNAINLDGGGSTTLVVANPDKEGKPKILNAPTHTKILMRDRPVANHLGFYAD | failed
17 | MIEGIIEEIRTNGSFLITTHENPDGDAVGSSLALAGYLRRLGKDVTIHFCDPVPDLYAFLPLAEEVTRTVPDRDYDICFVLDVGEFRRAGKQIAECKRIKKFINIDHHLTSDNFGFINYIDPKAAATGILVHRIITGAGDVVGYETALCLYTAIITDTGSFRYSNANPEAFAIAGELVSTGINTWSIAEKLYESQPRERLELLALALSTLTISPRGEYASITVTLDMYNKTGASAELTDGFVNYPRSIRGVEVSVFFREINPGLFKVGFRSKGKIDVSRIAAAFGGGGHHNAAGATMNGSLEGIKATLFSHLESTLLEHHHHHH | not failed
18 | MSKVFVNISLSLDGFMAPEGMDMAHFSDPTYKNWGAKWGALMAWALSQQYLREKLKLGTGGETGPVNDMVRHTFERTGAHIMGKRMFEGGERGWPEEAPFHTPVYVLTHERRNPWVRPGGTTFYFVNDGPEQALALAREAAGERDIRISGGANVIQQYLNLGLVDELEIALIPVIFGGGRRLFENLHEPLPQFRIDRVLASPTATHLRYVRL | not failed
19 | MSMGKKHLNINSQNHQSTKDEDNNCKNSLFFGLFDDPESKRLRSGSMKRQYSDMGDSYHRVYDEQNDDVEYDGDGDGDEDEGSRMDMRVLMVLEYMRELYVGQLQLLKKMFPGAAKDEFLGFFNKIGDAVSQIKQDSRPPTKSMTMRRSLSAGSPRFTSKGVNLGPSDLRHERFKVTMVNAGGAAGSAGGGKGGSAAGQGQTKK | failed
20 | MPTLKVAYIPEHFSTPLFFAQQQGYYKAHDLSIEFVKVPEGSGRLINLLNSNEVDIAIGLTEAFIADIAKGNENIHVLDTYVKSPLLWAVSTGSNRDDVTDAKQLKRIGVSRIGSGSYVMSFVLAHQLGVPSFDQFQVLSNFKNLRDSVNLKDGVEGSDAFMWEYFTSKKYYDNHEIKQIDQIYTPWSSWVVATSSDSLQAKSDVIKNFIDAVNQGIQYYNEHVDEAIEYISSNLDYSAEDAKEWTKTVEFNSRIGKTPLDWDTIVVKTKDTLKLAGVLAESDDVILKRLNSNVKKTNL | not failed
21 | MVFCGDDVATGVRDAITYCYRCKGRKVTLSDHEADDDNKPIGDFDYDHEVVVFEIRSRAMEKLRKKRRTGMEGLTYKFVKEYDIENEFCSVRSSFSECCMSDISIEGYMTAKTEFSRSSSLKGLELENQWKMHYVNEIKKGSVIQEFCHCQGWPFGLGRKAALLPPLPKSPAESWSWRKPTRVTPVPFV | failed
